B1: Spindle pole body assembly component MPS3 (Saccharomyces cerevisiae), P47069 (parent)
chain: MNNSNEHRREEAGAANEQMPYNKAVKSAYADVLKDKMNREQEISLRAIKKGIYTDGGETDNYDMDKENDSAYEMFKKNLDFPLDQHNDDDDDDPYIEDNGQETDGYSDEDYTDEADKSFIEDSDSDSYDLESNSDFEENLESSGEAKKLKWRTYIFYGGLFFVFYFFGSFLMTTVKNNDLESHSSGATSSPGKSFSNLQKQVNHLYSELSKRDEKHSSELDKTVKIIVSQFEKNIKRLLPSNLVNFENDINSLTKQVETISTSMSELQRRNHKFTVENVTQWQDQLVKQLDTHLPQEIPVVINNSSSLLIIPELHNYLSALISDVIESPGIGTAGSAESRWEYDLNRYVKEILSNELQYIDKDYFIQEMNRRLQSNKQEIWEEITNRLETQQQQQQQQVQQDYSNVPQQYSSILMKRLIHQIYNSNQHQWEDDLDFATYVQGTKLLNHLTSPTWRQGSGVQPIELLTDSKQSSSTYWQCENEPGCSWAIRFKTPLYLTKISYMHGRFTNNLHIMNSAPRLISLYVKLSQTKEIKALQTLANQYGFGQHHKRDRNYIKIAKFEYRLTDSRIRQQMYLPPWFIQLKPLVRSIVFQVDENYGNKKFISLRKFIINGVTPQDLQIIENNEFPVLLGDTPEYGVTQNTDEGKRKVLLSKPPYASSSTSTKFHPASNVPSFGQDELDQ
partner: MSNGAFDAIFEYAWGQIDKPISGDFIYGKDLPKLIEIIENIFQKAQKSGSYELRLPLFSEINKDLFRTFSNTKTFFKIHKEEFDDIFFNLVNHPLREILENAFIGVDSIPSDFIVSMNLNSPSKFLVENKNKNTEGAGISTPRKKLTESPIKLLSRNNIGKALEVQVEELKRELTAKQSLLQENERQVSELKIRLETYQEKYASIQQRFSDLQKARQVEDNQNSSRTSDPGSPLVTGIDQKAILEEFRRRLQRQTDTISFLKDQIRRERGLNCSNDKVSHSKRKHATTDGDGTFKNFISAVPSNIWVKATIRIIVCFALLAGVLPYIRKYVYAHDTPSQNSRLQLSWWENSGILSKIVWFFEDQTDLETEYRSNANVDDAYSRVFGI

Variants of: B1
Conditions: with mps2_yeast MPS2, P53159

Variant	effect of a mutation on the interaction
Q572L;Q573L	decreasing interaction
W487A	decreasing interaction
W477A	decreasing interaction
